We go through 4 molecules from US20180291335A1, “MODIFIED POLYNUCLEOTIDES FOR ALTERING CELL PHENOTYPE” (ModernaTX, Inc., priority 2012, published 2018).

Holding throughout (type): cell-based, human
Data set [1] concerns peripheral blood mononuclear cells (PBMC). Nature of the data set: In vitro PBMC study, percent modification: G-CSF expression by ELISA. The note with it: for G-CSF Expression: 22 hours after transfection; for Average G-CSF: PBMC, average of three donors. The method, then:
480 ng of G-CSF mRNA modified with 5-methylcytosine (5mC) and pseudouridine (pseudoU) or unmodified G-CSF mRNA was transfected with 0.4 uL of Lipofectamine 2000 into peripheral blood mononuclear cells (PBMC) from three normal blood donors (D1, D2, and D3). […] The supernatant was harvested and run by ELISA 22 hours after transfection to determine the protein expression. The expression of IFN-alpha and TNF-alpha may be a secondary effect from the transfection of the G-CSF mRNA.

Data set [2] has as its system TNF-alpha. Put plainly: In vitro PBMC study, percent modification: TNF-alpha expression by ELISA. The note with it: for Average TNF-a: average of three donors; for G-CSF/TNF-alpha (PC ratio): protein/cytokine ratio from averages. The method, then:
(§1) The supernatant was harvested and run by ELISA 22 hours after transfection to determine the protein expression.

Data set [3] has as its system IFN-alpha. Nature of the data set: In vitro PBMC study, percent modification: IFN-alpha expression by ELISA. The note with it: for Average IFN-a: average of three donors; for G-CSF/IFN-alpha (PC ratio): protein/cytokine ratio from averages. As to the method: as §1
For orientation: ELISA stands for enzyme-linked immunosorbent assay.

The subject of data set [4] is interferon-alpha (IFN-α). Put plainly: In vitro screening in PBMC: interferon-alpha induction by ELISA. The source says: (§2) The supernatant was harvested and stored frozen until analyzed by ELISA to determine the G-CSF protein expression, and the induction of the cytokines interferon-alpha (IFN-α) and tumor necrosis factor alpha (TNF-α).
Data set [5] deals with peripheral blood mononuclear cells (PBMC). Nature of the data set: In vitro screening in PBMC: G-CSF protein expression by ELISA.
From the text: as §2

For data set [6], the system named is tumor necrosis factor alpha (TNF-α). Put plainly: In vitro screening in PBMC: tumor necrosis factor alpha induction by ELISA.
From the text: as §2

The mark [7] stands for this setting: PBMC donor D1, 22 hours after transfection.
[8] abbreviates: PBMC donor D2, 22 hours after transfection.
Where [9] appears, read: PBMC donor D3, 22 hours after transfection.
The mark [10] stands for this setting: PBMC, versus natural G-CSF mRNA.
The mark [11] stands for this setting: PBMC Donor 1, 500 ng G-CSF mRNA.
[12] abbreviates: PBMC Donor 2, 500 ng G-CSF mRNA.
The mark [13] stands for this setting: PBMC Donor 3, 500 ng G-CSF mRNA.

For the molecule “Luciferase: control Luciferase mRNA (SEQ ID NO: 409, Cap1) fully modified 5meC and pseudoU [reference compound]”, the “G-CSF Expression” value in data set [1] (PBMC donor D1, 480 ng mRNA) amounted to 90.2 pg/mL; in data set [1] (PBMC donor D2, 480 ng mRNA), 0.0 pg/mL; in data set [1] (PBMC donor D3, 480 ng mRNA), 22.1 pg/mL.

B1: 100% modification: G-CSF mRNA (SEQ ID NO: 408, Cap1) completely modified with 5mC and pseudoU (nucleic acid)
chain: GGGAAAUAAGAGAGAAAAGAAGAGUAAGAAGAAAUAUAAGAGCCACCAUGGCCGGUCCCGCGACCCAAAGCCCCAUGAAACUUAUGGCCCUGCAGUUGCUGCUUUGGCACUCGGCCCUCUGGACAGUCCAAGAAGCGACUCCUCUCGGACCUGCCUCAUCGUUGCCGCAGUCAUUCCUUUUGAAGUGUCUGGAGCAGGUGCGAAAGAUUCAGGGCGAUGGAGCCGCACUCCAAGAGAAGCUCUGCGCGACAUACAAACUUUGCCAUCCCGAGGAGCUCGUACUGCUCGGGCACAGCUUGGGGAUUCCCUGGGCUCCUCUCUCGUCCUGUCCGUCGCAGGCUUUGCAGUUGGCAGGGUGCCUUUCCCAGCUCCACUCCGGUUUGUUCUUGUAUCAGGGACUGCUGCAAGCCCUUGAGGGAAUCUCGCCAGAAUUGGGCCCGACGCUGGACACGUUGCAGCUCGACGUGGCGGAUUUCGCAACAACCAUCUGGCAGCAGAUGGAGGAACUGGGGAUGGCACCCGCGCUGCAGCCCACGCAGGGGGCAAUGCCGGCCUUUGCGUCCGCGUUUCAGCGCAGGGCGGGUGGAGUCCUCGUAGCGAGCCACCUUCAAUCAUUUUUGGAAGUCUCGUACCGGGUGCUGAGACAUCUUGCGCAGCCGUGAAGCGCUGCCUUCUGCGGGGCUUGCCUUCUGGCCAUGCCCUUCUUCUCUCCCUUGCACCUGUACCUCUUGGUCUUUGAAUAAAGCCUGAGUAGGAAG
modifications: Cap1; full 5mC and pseudoU modification; Description of Artificial Sequence: Synthetic Transcript Sequence
With B1, the “G-CSF Expression” value in data set [1] (PBMC donor D1, 480 ng mRNA) amounted to 1968.9 pg/mL; in data set [1] (PBMC donor D2, 480 ng mRNA), 2595.6 pg/mL; in data set [1] (PBMC donor D3, 480 ng mRNA), 2835.7 pg/mL. For the same molecule, in data set [1], the “Average G-CSF” value turned out to be 2466 pg/mL. The results for the “TNF-alpha Expression” value in data set [2] (setting [7]), in data set [2] (setting [8]) and in data set [2] (setting [9]) were 115.0 pg/mL, 15.0 pg/mL and 11.1 pg/mL, respectively. Besides, the “Average TNF-a” value in data set [2] (PBMC) is 47 pg/mL. Besides, in data set [2] (PBMC), the “G-CSF/TNF-alpha (PC ratio)” value stood at 52. The “better ratio of protein/cytokine production than without any modification, TNF-alpha” value in data set [2] (setting [10]) came to 27 fold. Besides, the “IFN-alpha Expression” value in data set [3] (setting [7]) came to 336.5 pg/mL; in data set [3] (setting [8]) it was 78.0 pg/mL; in data set [3] (setting [9]), 46.4 pg/mL. Moreover, in data set [3] (PBMC), the “Average IFN-a” value stood at 153 pg/mL. The “G-CSF/IFN-alpha (PC ratio)” value in data set [3] (PBMC) was 16. The “better ratio of protein/cytokine production than without any modification, IFN-alpha” value in data set [3] (setting [10]) was 100 fold.

B2: 0% modification: unmodified G-CSF mRNA (SEQ ID NO: 408), not modified with 5mC and pseudoU (nucleic acid)
chain: GGGAAAUAAGAGAGAAAAGAAGAGUAAGAAGAAAUAUAAGAGCCACCAUGGCCGGUCCCGCGACCCAAAGCCCCAUGAAACUUAUGGCCCUGCAGUUGCUGCUUUGGCACUCGGCCCUCUGGACAGUCCAAGAAGCGACUCCUCUCGGACCUGCCUCAUCGUUGCCGCAGUCAUUCCUUUUGAAGUGUCUGGAGCAGGUGCGAAAGAUUCAGGGCGAUGGAGCCGCACUCCAAGAGAAGCUCUGCGCGACAUACAAACUUUGCCAUCCCGAGGAGCUCGUACUGCUCGGGCACAGCUUGGGGAUUCCCUGGGCUCCUCUCUCGUCCUGUCCGUCGCAGGCUUUGCAGUUGGCAGGGUGCCUUUCCCAGCUCCACUCCGGUUUGUUCUUGUAUCAGGGACUGCUGCAAGCCCUUGAGGGAAUCUCGCCAGAAUUGGGCCCGACGCUGGACACGUUGCAGCUCGACGUGGCGGAUUUCGCAACAACCAUCUGGCAGCAGAUGGAGGAACUGGGGAUGGCACCCGCGCUGCAGCCCACGCAGGGGGCAAUGCCGGCCUUUGCGUCCGCGUUUCAGCGCAGGGCGGGUGGAGUCCUCGUAGCGAGCCACCUUCAAUCAUUUUUGGAAGUCUCGUACCGGGUGCUGAGACAUCUUGCGCAGCCGUGAAGCGCUGCCUUCUGCGGGGCUUGCCUUCUGGCCAUGCCCUUCUUCUCUCCCUUGCACCUGUACCUCUUGGUCUUUGAAUAAAGCCUGAGUAGGAAG
modifications: Description of Artificial Sequence: Synthetic Transcript Sequence
On to B2, for which the “G-CSF Expression” value in data set [1] (PBMC donor D1, 480 ng mRNA) is 194.8 pg/mL; in data set [1] (PBMC donor D2, 480 ng mRNA), 182.0 pg/mL; in data set [1] (PBMC donor D3, 480 ng mRNA), 183.3 pg/mL. For the same molecule, in data set [1], the “Average G-CSF” value worked out at 186 pg/mL. Moreover, the “TNF-alpha Expression” value in data set [2] (setting [7]) was 154.6 pg/mL; in data set [2] (setting [8]), 96.8 pg/mL; in data set [2] (setting [9]), 45.9 pg/mL. The “Average TNF-a” value in data set [2] (PBMC) amounted to 99 pg/mL. Moreover, the “G-CSF/TNF-alpha (PC ratio)” value in data set [2] (PBMC) is 1.9. Also, the “IFN-alpha Expression” value in data set [3] (setting [7]) was 1421.6 pg/mL; in data set [3] (setting [8]), 810.5 pg/mL; in data set [3] (setting [9]) it was 1260.5 pg/mL. In addition, the “Average IFN-a” value in data set [3] (PBMC) was found to be 1164 pg/mL. Also, the “G-CSF/IFN-alpha (PC ratio)” value in data set [3] (PBMC) was found to be 0.16.

B3: mCherry: control mCherry mRNA (SEQ ID NO: 410, Cap1) fully modified with 5-methylcytosine and pseudouridine (nucleic acid)
chain: GGGAAAUAAGAGAGAAAAGAAGAGUAAGAAGAAAUAUAAGAGCCACCAUGGUAUCCAAGGGGGAGGAGGACAACAUGGCGAUCAUCAAGGAGUUCAUGCGAUUCAAGGUGCACAUGGAAGGUUCGGUCAACGGACACGAAUUUGAAAUCGAAGGAGAGGGUGAAGGAAGGCCCUAUGAAGGGACACAGACCGCGAAACUCAAGGUCACGAAAGGGGGACCACUUCCUUUCGCCUGGGACAUUCUUUCGCCCCAGUUUAUGUACGGGUCCAAAGCAUAUGUGAAGCAUCCCGCCGAUAUUCCUGACUAUCUGAAACUCAGCUUUCCCGAGGGAUUCAAGUGGGAGCGGGUCAUGAACUUUGAGGACGGGGGUGUAGUCACCGUAACCCAAGACUCAAGCCUCCAAGACGGCGAGUUCAUCUACAAGGUCAAACUGCGGGGGACUAACUUUCCGUCGGAUGGGCCGGUGAUGCAGAAGAAAACGAUGGGAUGGGAAGCGUCAUCGGAGAGGAUGUACCCAGAAGAUGGUGCAUUGAAGGGGGAGAUCAAGCAGAGACUGAAGUUGAAAGAUGGGGGACAUUAUGAUGCCGAGGUGAAAACGACAUACAAAGCGAAAAAGCCGGUGCAGCUUCCCGGAGCGUAUAAUGUGAAUAUCAAGUUGGAUAUUACUUCACACAAUGAGGACUACACAAUUGUCGAACAGUACGAACGCGCUGAGGGUAGACACUCGACGGGAGGCAUGGACGAGUUGUACAAAUGAUAAGCUGCCUUCUGCGGGGCUUGCCUUCUGGCCAUGCCCUUCUUCUCUCCCUUGCACCUGUACCUCUUGGUCUUUGAAUAAAGCCUGAGUAGGAAG
modifications: Cap1; 5mC/pseudoU modified; Description of Artificial Sequence: Synthetic Transcript Sequence
Consider B3, for which the “IFN-α Expression” value stood at 100 pg/mL in data set [4] (setting [11]), 75 pg/mL in data set [4] (setting [12]) and 143 pg/mL in data set [4] (setting [13]). In addition, the “G-CSF Protein Expression” value in data set [5] (setting [11]) stood at 5 pg/mL; in data set [5] (setting [12]) it was 168 pg/mL; in data set [5] (setting [13]), 164 pg/mL. For the same molecule, the figures for the “TNF-α Expression” value in data set [6] (setting [11]), in data set [6] (setting [12]) and in data set [6] (setting [13]) were 67 pg/mL, 100 pg/mL and 133 pg/mL, respectively.
